Data: the supplement of paper PMC10567573

B1: PLD5 (parent)
chain: VTYMNMTAYNKGRLQSSFWIVDKQ
B2: HSP90AB1 (parent)
chain: YHTSQSGDEMTSLSEYVSRMKETQ

Variants of: B1
Assay: protein stability index of a GFP-peptide fusion (GPS, HEK-293T) (PSI 1-6); higher = more stable
Conditions: c terminus: a fixed tail appended
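Further: lentivirally expressed fusions sorted by FACS into six bins by GFP to DsRed ratio, PSI derived from sequencing read proportions per bin multiplied by bin number.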

Protein stability index of substitutions, site by site:
Y9: F 3.22 | M 2.17 | Q 1.33 | T 2.06 | N 1.78 | S 1.83 | K 2.02 | V 1.81 | A 1.62 | L 1.92 | W 3.74 | I 2.59 | H 1.75 | R 1.58 | D 2.58 | G 2.11 | P 1.1 | C 2.55 | E 2.11
A8: P 3.56 | L 2.22 | S 2.24 | N 2.29 | I 3.64 | G 2.11 | H 1.93 | V 3.16 | D 1.1 | K 1.95 | C 2.68 | Q 1.5 | R 1.9 | F 2.41 | E 1.46 | Y 2.39 | M 2.46 | T 2.02
N5: R 3.38 | P 1.49 | W 3.13 | M 3.53 | A 3.48 | I 2.99 | L 3 | T 2.08 | D 1.45 | F 2.69 | E 2.76
R13: E 1.73 | G 1.6 | D 3.06 | A 3.25
T7: A 3.57 | H 2.05 | F 1.89 | D 1.87 | L 2.3 | V 2.61 | E 1.02 | P 1.22 | N 2.46 | S 2.21 | Q 2.36
M4: Q 2.18 | K 2.05 | L 1.68 | Y 2.31 | F 3.33 | E 2.3 | A 1.98 | T 2.44 | H 1.89 | N 1.5 | G 2.13 | V 3.21 | S 3.45 | D 1.89 | P 2.09 | C 3.5 | R 1.34
V1: W 2.46 | Y 3.25 | L 1.97 | D 1.78 | R 1.77 | E 2.35 | A 1.44 | T 1.54 | N 2.88 | M 2.45 | S 2.17 | H 1.61 | K 2.73 | C 1.49 | Q 1.9 | P 2.11 | G 2.21
G12: S 2.38 | M 2.18 | Q 1.37 | H 1.15 | R 1.58 | V 1.91 | C 1.53 | K 2.31 | F 3.77 | Y 2.49 | T 1.8 | A 1.89 | D 3.02 | E 1.8 | L 4.29
M6: L 3.25 | P 1.6 | I 2.91 | N 1.76 | T 1.58 | A 1.18 | F 2.16 | D 2.13 | K 1.58 | H 1.93 | S 1.87 | C 2.61 | Y 2.08 | V 2.89 | R 2.06 | Q 2.1 | G 2.46 | E 1.65
Y3: Q 1.76 | E 3.13 | D 3.2 | S 2.51 | P 2.06 | K 1.62 | F 2.88 | M 2.14 | H 1.67 | G 1.59 | N 3.08 | C 1.55 | T 1.66 | W 3.91 | R 2.4 | A 1.99 | V 2.33
N10: P 2 | L 1.28 | M 3.39 | C 2.87 | D 2.75 | K 1.89 | W 3.08 | R 2.25 | T 2.49 | Y 2.25 | E 3.78 | S 1.95 | A 2.67 | H 1.97 | Q 2.97
K11: I 3.18 | A 1.36 | N 3.07 | S 2.96 | H 1.95 | G 1.65 | E 3.5 | T 2.14 | D 1.96 | W 1.68 | L 3.44 | Y 3.58 | P 2.17 | Q 1.84 | R 1.96
T2: R 1.91 | P 1.68 | A 2.55 | I 1.76 | E 1.87 | Q 2.08 | H 2.6 | G 2.08 | N 1.29 | M 2.88 | K 2.52 | D 1.67 | W 1.4 | S 1.87 | C 2.25

Variants of: B2
Assay: as above
Conditions: c terminus: a fixed tail appended

Protein stability index of substitutions, site by site:
E22: T 3.67 | Q 3.94 | H 3.05 | N 3.84 | A 3.07 | G 3.33 | Y 3.44 | D 3.83 | L 3.54 | S 3 | F 3.71 | V 4.22 | C 4.17 | P 3.17 | K 3.63 | W 1.79 | M 3.31 | I 3.89
Q24: A 3.26 | P 3.43 | V 3.19 | R 3.53 | N 3.62 | L 2.98 | K 3.43 | Y 3.1 | C 3.18 | I 3.05 | E 3.94 | S 3.61 | G 3.52 | F 3.16 | M 3.2 | D 4.06 | T 3.64
R19: F 3.15 | W 3.46 | I 3.66 | S 3.8 | A 3.72 | D 4.41 | Y 3.7 | L 3.22 | P 3.47 | N 4.32 | M 3.89 | T 4.18 | Q 4.15 | V 3.67 | G 4.09 | K 4.27 | E 4.66 | H 3.68
V17: R 4.27 | S 3.87 | K 4.08 | F 3.23 | P 3.86 | Y 3.33 | D 4.57 | G 3.76 | I 3.22 | N 4.12 | L 3.56 | H 3.54 | W 2.41 | T 3.72 | Q 4.04 | E 4.49
K21: Q 3.32 | C 3.47 | Y 2.61 | D 4.08 | N 3.88 | E 4.2 | S 3.35 | W 2.64 | F 2.84 | G 3.84 | R 3.29 | H 3.52 | P 3.63 | L 3.52 | A 3.71 | T 3.42 | V 3.58 | M 3.13
S18: C 2.87 | I 3 | D 4 | A 3.72 | H 3.35 | G 3.36 | R 3.6 | P 3.92 | N 3.31 | Y 2.56 | M 3.41 | T 3.81 | Q 3.66 | W 1.77 | V 3.23 | L 2.74 | K 3.53 | E 3.8
M20: D 4.46 | E 3.73 | L 3.42 | W 2.47 | H 4.16 | Y 3.55 | I 3.29 | C 3.81 | Q 4.13 | R 4.26 | G 4.37 | P 4.44 | T 4.27 | V 3.92 | K 4.11 | F 2.89 | A 4.62 | S 3.73 | N 4.1
T23: S 3.5 | V 4.14 | I 3.63 | A 3.81 | H 3.59 | K 3.78 | R 3.76 | P 3.33 | E 2.89 | D 4.52 | N 3.88 | Y 3.16 | M 3.29 | C 3.23 | Q 3.9 | L 3.57 | W 2.79 | G 4.12
